For data set [1] the following is noted: scaled values = (raw log(P) + 2.061)/4.484; cited from earlier work.
The target of a further data set is ABCA1 (Mus musculus, UniProt P41233). The data set can be described thus: Cholesterol efflux from [3H]cholesterol-labeled ABCA1-expressing J774 mouse macrophages. It is filed as cell-based. On the set-up: to upregulate cellular ABCA1 protein; endogenous in cells; host or cells: J774 mouse macrophages. Conditions: for ABCA1-dependent cholesterol efflux: macrophages with vs without cAMP; for cholesterol efflux from macrophages not induced for ABCA1 (non-specific): no cAMP; for efficiency of ABCA1 cholesterol efflux (concentration dependence): concentration dependence curves. On the procedure: In some embodiments, a polypeptide known to mediate cholesterol efflux (e.g., helix 9/10 of Apo A-I) is used to screen for additional mediators of cholesterol efflux in a cell based assay. For example, cell lines in which cholesterol efflux can be enhanced using a cAMP analog that up-regulates ABCA1 protein expression (e.g., J774 macrophages) can conveniently be used to assess the ability of a polypeptide of the present invention to mediate cholesterol efflux. The cells are incubated with labeled cholesterol (e.g., [^3H]cholesterol) under conditions appropriate for cholesterol uptake by the cells. Thus, cAMP or cAMP analogs (e.g., CPT-cAMP) are incubated with the cells for a suitable time before the initiation of cellular cholesterol efflux, i.e., prior to contacting the cells with a test polypeptide. Measurement of labeled cholesterol appearing in the medium is used to determine the cholesterol efflux mediating activity of the test polypeptide.
J774 mouse macrophages labeled with [^3H]cholesterol were treated (20 h) with 22-hydroxycholesterol (10 μM)/cis-retinoic acid (10 μM) to upregulate cellular ABCA1 protein.
Mouse macrophages were labeled with [^3H]cholesterol and treated with a cAMP analog to induce ABCA1 expression. […] Km values were calculated using the Michaelis-Menton equation and GraphPad Prism4 software.
Inverted sequence peptides synthesized with all L-amino acids and all D-amino acids were tested for cholesterol efflux activity using ABCA1 expressing J774 macrophages.
Two peptide analogs were engineered; the first replacing glutamic acid residues (E) at position 8 and 15 with aspartic acid residues (D), i.e., E8, 15>D polypeptides, and the second, replacing E1, 7, 8, 15, 18, 19 with D, i.e., all D (Asp) polypeptide. Cholesterol efflux activity was determined using J774 macrophages treated with and without a cAMP analog to modulate ABCA1 expression.
The impact of the A12>L substitution was also tested for activity, which also expanded non-polar surface area.
1-palmitoyl-2-oleoyl-phosphatidylcholine (POPC) was used to evaluate the cholesterol efflux properties of a formulated polypeptide of the present invention. […] To test cholesterol efflux activity, J774 mouse macrophages were labeled with [^3H]cholesterol and treated with and without cAMP to modulate ABCA1 expression.

Data set [2] has as its target ABCA1 of J774 mouse macrophages (mouse, UniProt P41233 1-2261). As to the kind of experiment: cell-based or functional assay.

“Also recorded” adds a separate entry of the source. Where no end group is shown, it is not given here. [ ]: non-standard residue; d: D form.

Chain of ABCA1 of J774 mouse macrophages (P41233 whole entry): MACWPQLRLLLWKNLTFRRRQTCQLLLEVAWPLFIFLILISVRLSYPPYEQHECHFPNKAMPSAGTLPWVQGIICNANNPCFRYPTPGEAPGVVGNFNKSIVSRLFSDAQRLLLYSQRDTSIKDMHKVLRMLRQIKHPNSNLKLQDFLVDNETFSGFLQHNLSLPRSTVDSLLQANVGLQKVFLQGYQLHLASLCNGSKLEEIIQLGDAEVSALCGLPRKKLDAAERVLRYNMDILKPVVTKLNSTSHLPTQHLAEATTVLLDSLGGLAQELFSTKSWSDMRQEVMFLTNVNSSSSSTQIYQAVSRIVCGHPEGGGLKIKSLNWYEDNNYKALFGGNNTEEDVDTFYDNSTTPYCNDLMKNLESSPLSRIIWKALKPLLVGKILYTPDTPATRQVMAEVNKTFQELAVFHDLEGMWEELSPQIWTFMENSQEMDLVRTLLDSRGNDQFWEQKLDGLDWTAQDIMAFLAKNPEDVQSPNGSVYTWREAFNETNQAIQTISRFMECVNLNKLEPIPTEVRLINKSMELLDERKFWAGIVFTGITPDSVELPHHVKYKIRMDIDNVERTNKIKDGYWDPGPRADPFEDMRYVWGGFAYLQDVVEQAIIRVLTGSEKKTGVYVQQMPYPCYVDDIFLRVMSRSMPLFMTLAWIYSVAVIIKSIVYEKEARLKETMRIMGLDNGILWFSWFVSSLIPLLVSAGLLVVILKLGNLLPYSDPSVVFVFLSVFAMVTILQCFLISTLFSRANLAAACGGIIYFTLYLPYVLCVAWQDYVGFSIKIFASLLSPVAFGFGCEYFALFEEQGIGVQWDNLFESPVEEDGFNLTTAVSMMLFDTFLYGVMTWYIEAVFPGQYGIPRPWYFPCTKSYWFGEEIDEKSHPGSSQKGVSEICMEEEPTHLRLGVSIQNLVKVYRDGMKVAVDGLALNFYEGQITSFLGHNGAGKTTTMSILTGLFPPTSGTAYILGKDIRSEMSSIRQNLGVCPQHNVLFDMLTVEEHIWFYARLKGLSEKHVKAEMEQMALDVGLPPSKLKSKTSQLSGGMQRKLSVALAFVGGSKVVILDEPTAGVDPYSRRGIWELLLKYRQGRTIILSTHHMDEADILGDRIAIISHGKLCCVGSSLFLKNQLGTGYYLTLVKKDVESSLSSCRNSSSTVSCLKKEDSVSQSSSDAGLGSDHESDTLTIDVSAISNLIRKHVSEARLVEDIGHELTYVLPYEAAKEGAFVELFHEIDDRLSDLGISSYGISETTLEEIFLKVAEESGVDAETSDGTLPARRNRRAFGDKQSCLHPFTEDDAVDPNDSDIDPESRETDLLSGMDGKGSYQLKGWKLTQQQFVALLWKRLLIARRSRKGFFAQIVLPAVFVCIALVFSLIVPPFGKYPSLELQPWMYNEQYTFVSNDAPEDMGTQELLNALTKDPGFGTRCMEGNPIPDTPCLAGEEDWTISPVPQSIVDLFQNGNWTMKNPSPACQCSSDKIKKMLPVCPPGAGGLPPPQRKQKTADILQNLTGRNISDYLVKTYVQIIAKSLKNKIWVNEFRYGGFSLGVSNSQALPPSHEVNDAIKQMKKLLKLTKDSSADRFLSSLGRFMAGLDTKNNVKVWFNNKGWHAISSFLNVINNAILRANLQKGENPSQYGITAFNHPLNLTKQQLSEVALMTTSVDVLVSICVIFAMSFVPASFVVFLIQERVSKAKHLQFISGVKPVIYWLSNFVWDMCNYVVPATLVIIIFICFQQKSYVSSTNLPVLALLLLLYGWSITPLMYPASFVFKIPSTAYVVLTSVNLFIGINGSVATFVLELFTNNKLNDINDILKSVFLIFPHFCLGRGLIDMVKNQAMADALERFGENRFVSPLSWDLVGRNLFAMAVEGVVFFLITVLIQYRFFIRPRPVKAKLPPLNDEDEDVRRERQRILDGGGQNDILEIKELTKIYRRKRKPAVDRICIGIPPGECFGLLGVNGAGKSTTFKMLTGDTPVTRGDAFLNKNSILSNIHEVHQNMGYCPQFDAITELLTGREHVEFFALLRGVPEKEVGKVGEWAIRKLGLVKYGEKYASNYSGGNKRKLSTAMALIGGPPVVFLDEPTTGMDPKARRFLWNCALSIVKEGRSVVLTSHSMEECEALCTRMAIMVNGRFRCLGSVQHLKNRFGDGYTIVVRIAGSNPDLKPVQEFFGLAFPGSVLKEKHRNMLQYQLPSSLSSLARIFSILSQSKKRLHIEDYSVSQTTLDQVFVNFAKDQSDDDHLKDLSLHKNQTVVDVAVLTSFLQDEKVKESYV
Chain of ABCA1 (P41233 whole entry): as above

Take `NCCCC[C@H](N)C(=O)O` [Lysine]: the Hydrophobicity in data set [1] is reported as 0.283. As for `CSCC[C@H](N)C(=O)O` [Methionine], the Hydrophobicity in data set [1] is listed as 0.738. With `N=C(N)NCCC[C@H](N)C(=O)O` [Arginine], the Hydrophobicity in data set [1] is recorded as 0.000.

Consider `CC[C@H](C)[C@H](N)C(=O)O` [Isoleucine], for which the Hydrophobicity in data set [1] is listed as 0.943.

On to `N[C@@H](CCC(=O)O)C(=O)O` [Glutamate], for which the Hydrophobicity in data set [1] is given as 0.043. In the case of `N[C@@H](Cc1c[nH]c2ccccc12)C(=O)O` [Tryptophan], the Hydrophobicity in data set [1] was 0.878. Consider `NCC(=O)O` [Glycine], for which the Hydrophobicity in data set [1] is 0.501. For `N[C@@H](Cc1ccc(O)cc1)C(=O)O` [Tyrosine], the Hydrophobicity in data set [1] is on record as 0.880. As to `O=C(O)[C@@H]1CCCN1` [Proline], the Hydrophobicity in data set [1] was 0.711. On to `C[C@@H](O)[C@H](N)C(=O)O` [Threonine], for which, in data set [1], the Hydrophobicity was 0.450.

`CC(C)[C@H](N)C(=O)O` [Valine]: the Hydrophobicity in data set [1] is recorded as 0.825. Regarding `NC(=O)C[C@H](N)C(=O)O` [Asparagine], in data set [1], the Hydrophobicity is 0.236. In the case of `C[C@H](N)C(=O)O` [Alanine], the Hydrophobicity in data set [1] was 0.616. With `N[C@@H](Cc1c[nH]cn1)C(=O)O` [Histidine], in data set [1], the Hydrophobicity was 0.165. “A12>L: A12>L substitution analogs of SEQ ID NO:4 (EVRSKLEEWFALFREFAEEFLARLKS; ATI-5261 amphipathic alpha-helix polypeptide core sequence selectively binds HDL, high-affinity ligand for ATP-binding cassette transporter A1 (ABCA1), ABCA1-lipid cholesterol efflux, ABCA1-stablization, anti-oxidant and anti- inflammatory activity)”: the ABCA1-dependent cholesterol efflux result in the data set with ABCA1 is reported as “stimulated cholesterol efflux from macrophages in an ABCA1-dependent manner”. As to “S4, 26>A: SEQ ID NO:4 with serine to alanine substitutions at positions 4 and 26 (EVRAKLEEWFAAFREFAEEFLARLKA; ATI-5261 amphipathic alpha-helix polypeptide core sequence selectively binds HDL, high-affinity ligand for ATP-binding cassette transporter A1 (ABCA1), ABCA1-lipid cholesterol efflux, ABCA1-stablization, anti-oxidant and anti- inflammatory activity)”, the ABCA1-dependent cholesterol efflux result with ABCA1 is on record as “retained ABCA1-dependent cholesterol efflux activity”.

Consider `N[C@@H](Cc1ccccc1)C(=O)O` [Phenylalanine], for which the Hydrophobicity in data set [1] was 1.00. In the case of “E8, 15>D: SEQ ID NO:5 with glutamic acid at positions 8 and 15 replaced with aspartic acid (EVRSKLEDWFAAFRDFFEEFLARLKS; S1 amphipathic alpha-helix polypeptide core sequence selectively binds HDL, high-affinity ligand for ATP- binding cassette transporter A1 (ABCA1), ABCA1-lipid cholesterol efflux, ABCA1-stablization, anti-oxidant and anti-inflammatory activity)”, the ABCA1-dependent cholesterol efflux result with ABCA1 is recorded as “retained high capacity to stimulate cholesterol efflux in an ABCA1-dependent manner”.

Turning to “R3, 14, 23→K3, 14, 23: SEQ ID NO:5 with lysine in place of arginine at positions 3, 14 and 23 (EVKSKLEEWFAAFKEFFEEFLAKLKS; S1 amphipathic alpha-helix polypeptide core sequence selectively binds HDL, high-affinity ligand for ATP- binding cassette transporter A1 (ABCA1), ABCA1-lipid cholesterol efflux, ABCA1-stablization, anti-oxidant and anti-inflammatory activity)”, in the data set with ABCA1, the ABCA1-dependent cholesterol efflux result is recorded as “stimulated ABCA1 cholesterol efflux” and the “cholesterol efflux from macrophages not induced for ABCA1 (non-specific)” value was “Low efflux”. Turning to “R14→Q: SEQ ID NO:5 with arginine 14 replaced by glutamine (EVRSKLEEWFAAFQEFFEEFLARLKS; S1 amphipathic alpha-helix polypeptide core sequence selectively binds HDL, high-affinity ligand for ATP- binding cassette transporter A1 (ABCA1), ABCA1-lipid cholesterol efflux, ABCA1-stablization, anti-oxidant and anti-inflammatory activity)”, the “ABCA1-dependent cholesterol efflux at 30 μg/ml” value in the data set with ABCA1 (30 μg/ml peptide) is listed as “mediated cholesterol efflux in an ABCA1 dependent manner”. Besides, the “efficiency of ABCA1 cholesterol efflux (concentration dependence)” value in the data set with ABCA1 is reported as “high efficiency”. On to “E8, 15→Q8, 15: SEQ ID NO:5 with two glutamate residues replaced with glutamine (EVRSKLEQWFAAFRQFFEEFLARLKS; S1 amphipathic alpha-helix polypeptide core sequence selectively binds HDL, high-affinity ligand for ATP- binding cassette transporter A1 (ABCA1), ABCA1-lipid cholesterol efflux, ABCA1-stablization, anti-oxidant and anti-inflammatory activity)”, for which the “cholesterol efflux from macrophages not induced for ABCA1 (non-specific)” value with ABCA1 is given as “further augmented”.

Consider “R3>L: SEQ ID NO:4 polypeptides with arginine at position 3 replaced by leucine (EVLSKLEEWFAAFREFAEEFLARLKS; ATI-5261 amphipathic alpha-helix polypeptide core sequence selectively binds HDL, high-affinity ligand for ATP-binding cassette transporter A1 (ABCA1), ABCA1-lipid cholesterol efflux, ABCA1-stablization, anti-oxidant and anti- inflammatory activity)”, for which, in the data set with ABCA1, the ABCA1-dependent cholesterol efflux entry is given as “relatively high-levels of cholesterol efflux” and the “cholesterol efflux from macrophages not induced for ABCA1 (non-specific)” value is “low-levels of cholesterol efflux”. On to “EVRSKLEEWFAAFREFFEEFLARL (amphipathic alpha-helix polypeptide core sequence selectively binds HDL, high-affinity ligand for ATP- binding cassette transporter A1 (ABCA1), ABCA1-lipid cholesterol efflux, ABCA1-stablization, anti-oxidant and anti-inflammatory activity) [24-mer]”, for which the “capacity to stimulate cholesterol efflux at 3 μg/ml” value in the data set with ABCA1 (3 μg/ml lipid-free peptide, ABCA1-expressing macrophages) is reported as “retained high capacity to stimulate cholesterol efflux; also recorded: retained high activity”. In addition, in the data set with ABCA1, the “efficiency of ABCA1 cholesterol efflux (concentration dependence)” value was “high efficience” and the ABCA1-dependent cholesterol efflux result is given as “stimulated cholesterol efflux in an ABCA1-dependent manner”. For EVKSKLEEWFAAFKEFFEEFLAKLKS [R3, 14, 23→K3, 14, 23 analog of the polypeptide of SEQ ID NO:5], the “cholesterol efflux: concentration giving maximal efflux” value in data set [2] is 3 µg/mL. On the same count and under the same terms, for DVRSKLDDWFAAFRDFFDDFLARLKS [E1, 7, 8, 15, 18, 19>D analog of the polypeptide of SEQ ID NO:5] the value was 3 µg/mL; for EVRSKLEDWFAAFRDFFEEFLARLKS [E8, 15>D analog of the polypeptide of SEQ ID NO:5], 3 µg/mL; for EVRSKLEEWFAAFREFAEEFLARLKY [S26>Y analog of the polypeptide of SEQ ID NO:4], 3 µg/mL. The same measure, in the same setting: for [dS][dK][dL][dR][dA][dL][dF][dE][dE][dA][dF][dE][dR][dF][dA][dA][dF][dW][dE][dE][dL][dK][dS][dR][dV][dE] [inverted sequence peptide of SEQ ID NO:20, all D-amino acids] the value was 3 µg/mL; for SKLRALFEEAFERFAAFWEELKSRVE [inverted sequence peptide of SEQ ID NO:20, all L-amino acids], 3 µg/mL. Same read-out and setting: to [dE][dV][dR][dS][dK][dL][dE][dE][dW][dF][dA][dA][dF][dR][dE][dF][dA][dE][dE][dF][dL][dA][dR][dL][dK][dS] [polypeptide of SEQ ID NO:4 composed of all D-amino acids] belongs 3 µg/mL; to EVRSKLEEWFAAFREFFEEFLARL [24-mer polypeptide of SEQ ID NO:5 lacking Lys25-Ser26], 3 µg/mL.

The record behind these values is patent US8987192B2, “Potent and selective mediators of cholesterol efflux” (The Regents of the University of California, priority 2006, dated 2015).
